In paper PMC9700395:

Biological target: Thrombin (UniProt P00734;P00734 328-363;364-622)
Assay: ion current rectification nanopipette aptasensor

B1: N protein aptamer (ssDNA)
DNA: GCTGGATGTCGCTTACGACAATATTCCTTAGGGGCACCGCTACATTGACACATCCAGC
modifications: 5'-NH2
binding result: no binding
